Measurements: PMC10071043, “Cryo-EM structure of the RuvAB-Holliday junction intermediate complex from Pseudomonas aeruginosa” (Frontiers in Plant Science, 2023)

T1: PaRuvA (Pseudomonas aeruginosa, UniProt Q51425 1-201)
T1 sequence: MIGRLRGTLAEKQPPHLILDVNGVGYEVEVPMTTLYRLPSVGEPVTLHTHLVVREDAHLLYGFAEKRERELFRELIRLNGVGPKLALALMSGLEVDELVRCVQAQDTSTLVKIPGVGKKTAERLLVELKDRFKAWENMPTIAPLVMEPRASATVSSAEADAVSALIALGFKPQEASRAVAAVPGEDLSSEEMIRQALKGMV

B1: Pseudomonas aeruginosa RuvA (natural protein, UniProt Q51425 1-201, looked up)
chain: T1 sequence
notes: cDNA synthesised (GenBank ID 879609); domains D1, D2 and D3; In the cryo-EM complex eight RuvA subunits (two tetramers) sandwich one Holliday junction DNA; GST removed with PreScission protease; also called PaRuvA; source: E. coli Rosetta (DE3), purified (GST Sepharose, Source 15Q, Superdex 200); not shown: GST, N-terminal, cleaved
B2: Pseudomonas aeruginosa RuvB (enzyme, UniProt Q51426 1-352, looked up)
chain: MIEPDRLISAVSGRERDEQLDRAIRPLKLADYIGQPSVREQMELFIHAARGRQEALDHTLIFGPPGLGKTTLANIIAQEMGVSIKSTSGPVLERPGDLAALLTNLEAGDVLFVDEIHRLSPIVEEVLYPAMEDFQLDIMIGEGPAARSIKLDLPPFTLVGATTRAGMLTNPLRDRFGIVQRLEFYNVEDLATIVSRSAGILGLEIEPQGAAEIAKRARGTPRIANRLLRRVRDFAEVRGQGDITRVIADKALNLLDVDERGFDHLDRRLLLTMIDKFDGGPVGIDNLAAALSEERHTIEDVLEPYLIQQGYIMRTPRGRVVTRHAYLHFGLNIPKRLGPGVTTDLFTSEDGN
notes: RuvB, AAA+ ATPase motor protein of Pseudomonas aeruginosa; cDNA synthesised (GenBank ID 882028); domains N, M and C; In the cryo-EM complex eight RuvB subunits form two open rings of four; only one ring is modelled; GST removed with PreScission protease; also called PaRuvB; source: E. coli BL21 (DE3), purified (GST Sepharose, Source 15Q, Superdex 200); not shown: GST, N-terminal, cleaved
B3: HJ2 (HJ2-A/B/C/D) (structured_DNA)
DNA 1: CACTGTGATGCACGATGATAGAACACAGTACTCAGTGCTGCAGTGCTCAGGTGTG
DNA 2: ATACAGATGTAGAGCCAGCACTGAGTACTGTGTTCTATCATCGTGCATCACAGTG
DNA 3: CACTGTGATGGCATGTATCCGAACACAGTACTCAGTGCTGGCTCTACATCTGTAT
DNA 4: CACACCTGAGCACTGCAGCACTGAGTACTGTGTTCGGATACATGCCATCACAGTG

Columns and labels:
[1] = target: B2; assay: cryo-EM structure; HJ DNA (HJ2) pre-incubated with RuvA at 4°C for 15 min, then with RuvB for 15 min, RuvA:RuvB:HJ = 8:16:1.2; 50 mM NaCl, 20 mM HEPES pH 7.4, 1 mM ATPγS, 10 mM MgCl2, 1 mM DTT; complex purified on Superose 6; conditions: both partners purified
[2] = target: the molecule itself; assay: as above
PaRuvA;PaRuvB = PaRuvA;PaRuvB (Pseudomonas aeruginosa;Pseudomonas …, UniProt Q51425;Q51426 1-201;1-352, |); assay: cryo-EM; RuvAB-HJ intermediate complex; PDB assigned from residue and nucleotide counts; binding buffer for cryo-EM not given in material; proteins in 20 mM HEPES pH 7.4, 200 mM NaCl, 15 mM reduced glutathione, 1 mM DTT; DNA annealed in 100 mM HEPES pH 7.4, 50 mM NaCl; conditions: protein: recombinant;recombinant; tags: GST tag removed (PreScission);GST tag removed (PreScission); chain copies: 8;8; four-way Holliday junction of 4 strands; A/B and C/D annealed first, then mixed
PaRuvA = target: T1, PaRuvA; assay: cryo-EM; RuvA-HJ core region of the RuvAB-HJ complex, 3.0 A; PDB assigned from residue and nucleotide counts; binding buffer for cryo-EM not given in material; proteins in 20 mM HEPES pH 7.4, 200 mM NaCl, 15 mM reduced glutathione, 1 mM DTT; DNA annealed in 100 mM HEPES pH 7.4, 50 mM NaCl; conditions: protein: recombinant; tags: GST tag removed (PreScission); chain copies: 8; four-way Holliday junction of 4 strands; A/B and C/D annealed first, then mixed
PaRuvB = PaRuvB (Pseudomonas aeruginosa, UniProt Q51426 1-352); assay: cryo-EM; RuvB ring on one HJ arm duplex in the RuvAB-HJ complex; RuvB1 and RuvB2 contact DNA via C-terminal beta-hairpins, RuvB3 and RuvB4 DNA-free; PDB assigned from residue and nucleotide counts; binding buffer for cryo-EM not given in material; proteins in 20 mM HEPES pH 7.4, 200 mM NaCl, 15 mM reduced glutathione, 1 mM DTT; DNA annealed in 100 mM HEPES pH 7.4, 50 mM NaCl; conditions: protein: recombinant; tags: GST tag removed (PreScission); chain copies: 8; four-way Holliday junction of 4 strands; A/B and C/D annealed first, then mixed

Row | Binder | binding result [1] | stoichiometry N [2] | binding result (PaRuvA;PaRuvB) | binding result (PaRuvA) | binding result (PaRuvB)
1 | B1 | binds | 8 |  |  | 
2 | B2 |  | 4 |  |  | 
3 | B3 |  |  | binds | binds | binds
